The Immune Epitope Database (IEDB)

The sequences below were run against HLA-A*02:01 (assay: IEDB peptide-MHC binding, purified MHC/competitive/radioactivity; ≥ and ≤ were set here for values at or beyond the usual limits of such assays). Conditions: source organism: Bordetella pertussis.

Sequence	IC50
TLNASNLTL	4.46 µM
VIDGQKVLA	35.2 µM

Each sequence was assayed against HLA-B*07:02 in the same assay as above. Conditions: source organism: Bordetella pertussis.

Sequence	IC50
GAPAAVSVL	69.6 µM
HVRGMLVPV	6.16 µM

These sequences were tested against HLA-B*35:01 in the same assay as above. Conditions: source organism: Bordetella pertussis.

Sequence	IC50
AAESTFESY	44.6 µM
HAEHEKDVR	69.9 µM
KAAKSVNLM	50.6 µM
LPTHLYKNF	10.5 µM

Each sequence was assayed against HLA-B*44:03 in the same assay as above. Conditions: source organism: Bordetella pertussis.

Sequence	IC50
AEATQLVTA	2.18 µM
AESSEAMAA	7.54 µM
FELGADHAV	≥ 78.2 µM
IETGGARRF	22.1 µM
VEVSSPPPV	28.8 µM

These sequences were tested against HLA-B*53:01 in the same assay as above. Conditions: source organism: Bordetella pertussis.

Sequence	IC50
DASGQHRLW	25.6 µM
KPLADIAVI	15.7 µM
PAPTAPPMP	53.4 µM
YPALRAALI	9.5 µM

The sequences below were run against HLA-B*57:01 in the same assay as above. Conditions: source organism: Bordetella pertussis.

Sequence	IC50
DASGQHRLW	≥ 70.4 µM
KGPKLAMPW	4.87 µM
RGWSIFALY	1.05 µM
VSVKVAKKL	37.4 µM
